Test results from the supplement of paper PMC9170038.

Tested on: MS2 coat protein
Test: apparent KD of MS2 coat protein; designed switch direction (-1 OFF switch, 1 ON switch): -1; higher = weaker reporter binding
Procedure, shortened: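 Three titration conditions were used: no input, 200 uM small-molecule ligand, and an oligonucleotide input. In each, SNAP-549-labelled MS2 coat protein was raised from 0.7 or 1.5 nM, doubling, to 3 µM over designed RNA switches transcribed on Illumina chips by stalled E. coli RNA polymerase. Curve fits of normalised cluster fluorescence gave values whose per-design median over clusters is the apparent KD.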

[1] = Eterna round: R95, input ligand: microRNA oligo, concentration not stated
[2] = Eterna round: R95, input ligand: FMN 200 uM
[3] = Eterna round: R95, input ligand: none
[4] = input ligand: microRNA oligo, concentration not stated

| Sequence | apparent KD of MS2 coat protein (input ligand: FMN 200 uM) | apparent KD of MS2 coat protein (input ligand: none) | apparent KD of MS2 coat protein [1] | other results |
| --- | --- | --- | --- | --- |
| AAAUUGCUAGAGGAUAUCGGAUAGGAUCUAUCGCGAGAAGGCUGGACAUGAGGAUCACCCAUGUUCUGUUGGGA [EX6 #29] (Eterna round: R97, puzzle: Exclusion 6) | 57.4 nM | 25.2 nM |  |  |
| CGCUAGUCAGGAUAUACGAACAUGUCAAAAGACGUGAAGGGACAUGAGGAUCACCCAUGUAGAAGGGACUAGCU [salish99_ex2_r3_013] (puzzle: Exclusion 2) |  |  | 24.7 nM |  |
| CUUCUCGUUGUGAGGAUAUCGUUUUCGUCUCGGAUCGAGAAGGCACAUGAGGAUCACCCAUGUUUGUUGUGGUU [JR_BMOE4_Sub090] (puzzle: Brourd's mod of Exclusion 4) |  |  | 87.9 nM |  |
| GGUUGACAUGAGGAUCACCCAUGUGAGGAUAUCGGCUGGUACGUGUUGGCUGGCAUCUCGAGAAGGCACAUAGG [Exclusion 1 V59] (puzzle: Exclusion 1) |  |  | 155 nM |  |
| GCAAGCUUAAUCAGUAUGAACAUGAGGAUCACCCAUGUAUAAGGUAAUUCUUUUGGGUUUUUUAUUGCUCGUCUUAU [JR_STOV1_Sub027] (Eterna round: R97, puzzle: Sensor, turn-off variant 1) | 245 nM | 297 nM |  |  |
| AUUAUGUUAGGAUAUUAUUUGCCCUACUAAGGCACGAGAAGUAAGAAGGGACAUGAGGAUCACCCAUGUUGGAG [Eternabot (L2) Solution 71] (Eterna round: R97, puzzle: Exclusion 4) | 30.3 nM | 42.7 nM |  |  |
| AUGUUGCGAGGAUAUAUAAGGGUAUAUUCAUAAGAUAUGGAACAUGAGGAUCACCCAUGUAGAAGGUGCAUAAC [JR_Ex2_Sub042] (Eterna round: R97, puzzle: Exclusion 2) | 200 nM | 46.2 nM |  |  |
| CAGUACUGAGGAUAUACAUGAGGAUCACCCAUGUGUUCCAGCUAGGGAACUAGCAAAAGUAGAAGGCAGUACUG [salish99_ex3_r3_075] (puzzle: Exclusion 3) |  |  | 23.1 nM |  |
| AGCCCUAAUGUCAGGAUAUGCAUCCUUAAUGGACGGCAGAAGGGACAUGAGGAUCACCCAUGUAAAUAGAAAUU [Direised] (puzzle: Brourd's mod of Exclusion 4) |  |  | 31.4 nM |  |
| GAGAAACAUGAGGAUCACCCAUGUGAGGAUAUGCGUACGUUGUCCGUAGGCGACGUGCGCAGAAGGCGCAAAAG [Mat - Mod of JL D87] (puzzle: Exclusion 1) |  |  | 53.5 nM | apparent KD of MS2 coat protein [2]: 59 nM; apparent KD of MS2 coat protein [3]: 96 nM |
| CUGCAACAUGAGGAUCACCCAUGUCAGGAUAUUCCAAAAUCGUCGAAAGACGAUAACAGAAGAAGGGACAGUAG [Fiskxlusion 7 - Jieux - Exclusion 1] (Eterna round: R97, puzzle: Exclusion 1) | 44 nM | 35.6 nM |  |  |
| GGAAGACAUGAGGAUCACCCAUGUAAGGAUAUCGAAGGUAAGAGAGGAAAGAAGGGAACGAGAAGGUACAGGUG [JR_Exclu1_Sub095] (puzzle: Exclusion 1) |  |  | 88.9 nM | apparent KD of MS2 coat protein [2]: 102 nM; apparent KD of MS2 coat protein [3]: 123 nM |
| AAAUUAGCAAGUAGGUCCGACAUGAGGAUCACCCAUGUAAUCUGAAAUUACGCUGCACGAAAGUGCGCUCGUCUUAG [Sensor-V1 #11] (Eterna round: R97, puzzle: Sensor, turn-off variant 1) | 149 nM | 149 nM |  |  |
| AUAUACGGAGGAUAUACUUGAGGAUCACCCAAGUGGGAUCCCGUUUGGGCGGUAAAUAGUAGAAGGCCGACCCA [jl-ex3-4.41 ViennaUCT mod] (Eterna round: R97, puzzle: Exclusion 3) | 31.3 nM | 29 nM |  |  |
| UUUGAAUAGGUAGGAUAUACAUACAUUCCUACAUUACUAACAUGAGGAUCACCCAUGUAUACAUUGUAGAAGGACCAGAUUGAU [JR_ExcNG2_Sub039] (Eterna round: R96, puzzle: Exclusion NG 2) |  |  |  | apparent KD of MS2 coat protein [4]: 18.8 nM |
| ACAUGAGGAUCACCCAUGUGCCCAUCUAGCACAUGUCCUCGCUAGGAUAUGUAGGCCUCGACGCCGCAGAAGGAGCUAAAAGAG [Raatlaan] (Eterna round: R96, puzzle: Exclusion NG 3) | 129 nM | 64.5 nM |  | apparent KD of MS2 coat protein [4]: 44.6 nM |
| GACCUAUAGGUAGGAUAUCAUUGCGAUUAGCUAUGAGAAGGACCACAUGAGGAUCACCCAUGUCCUCCAAUUAACCAUAAGGUC [Fiskers ExNg1 - 5] (Eterna round: R96, puzzle: Exclusion NG 1) | 98.7 nM | 40.9 nM |  | apparent KD of MS2 coat protein [4]: 34.6 nM |
| CAUUAAACGGAGGAUAUCCUAUAUAUAAUAAUAGGAGAAGGUCGUACAUGAGGAUCACCCAUGUGUGGACAUGG [something] (puzzle: Exclusion 6) |  |  | 206 nM | apparent KD of MS2 coat protein [2]: 107 nM; apparent KD of MS2 coat protein [3]: 249 nM |
| AAUAACAGAGGAUAUACUAUUUUAUGUGUUUGUUAUUUUAAACAUGAGGAUCACCCAUGUAGAAGGCUGAUUGA [JMF 72] (puzzle: Exclusion 2) |  |  | 41 nM |  |
| ACACAAGCCCUUUGCUCGUUUUAAUACAGCGGGCUCUUCACAUGAGGAUCACCCAUGUAGGCCUUGUUCCAAGGCCG [Rebileve] (puzzle: Sensor v3, turn-off variant 2) |  |  | 23.6 nM | apparent KD of MS2 coat protein [2]: 20.4 nM; apparent KD of MS2 coat protein [3]: 20 nM |
| AGGGCACAUGAGGAUCACCCAUGUGAGGAUAUCCCGGUACUAUCGAUGUAGUAAUCGUGGAGAAGGCACACGAC [EX1 C.21] (Eterna round: R97, puzzle: Exclusion 1) | 90.3 nM | 62.6 nM |  |  |
| CUGUUUGUAGGAUAUACAUGCGGAACCCUCCUCGUGUGAAGACAUGAGGAUCACCCAUGUAGAAGGACGAGGAG [Angeer] (Eterna round: R97, puzzle: Exclusion 2) | 16 nM | 16.3 nM |  |  |
| AGUUCUAACACGUUGGUGUUAGUACCAUAAGCUUGUGAUACAUGAGGAUCACCCAUGUCCUCAUAAGCUCGUCUUAU [salish99_TOv2_r3_1001] (puzzle: Sensor v3, turn-off variant 2) |  |  | 400 nM | apparent KD of MS2 coat protein [2]: 26.8 nM; apparent KD of MS2 coat protein [3]: 21.9 nM |
| CAGGUUAGAGGAUAUACGUAGGUACAGAUCUGUGUGUUCCUACAUGAGGAUCACCCAUGUAGAAGGCUAUCCUG [LRO-Excl2-09] (puzzle: Exclusion 2) |  |  | 61.9 nM |  |
| GGUUGGCGAGGAUAUACAUGAGGAUCACCCAUGUGAAAGAAAAAAGUGAGGAAGAAAAGUAGAAGGCGCUGACG [salish99_ex3_r3_016] (puzzle: Exclusion 3) |  |  | 8.93 nM | apparent KD of MS2 coat protein [2]: 5.86 nM; apparent KD of MS2 coat protein [3]: 14.4 nM |
| AUUUUAAUAUAGGAUAUCGAAAUUAUUAUUUAACGAGAAGGAUAAACAUGAGGAUCACCCAUGUGGUAUCAUGG [JMFs Solution 1] (puzzle: Exclusion 6) |  |  | 134 nM | apparent KD of MS2 coat protein [2]: 138 nM; apparent KD of MS2 coat protein [3]: 196 nM |
| GUACUGACAGGAUAUACAUGAGGAUCACCCAUGUCCUUAGGCUGACAAAAGUCAGCAAGUAGAAGGGUCUGUAC [Omei Ex3 Model Bachelor's Dilema v3] (Eterna round: R97, puzzle: Exclusion 3) | 1500 nM | 85.5 nM |  |  |
